Source: patent US20060269536

Experiments:
[1] = system: substrate pentapeptide MTR↓SN
[2] = system: substrate pentapeptide ER↓VSP
[3] = system: substrate pentapeptide RR↓SID
[4] = system: substrate pentapeptide RGR↓SE
[5] = system: substrate pentapeptide LR↓SRA
[6] = system: substrate pentapeptide KLR↓TT

Substance: human glandular kallikrein hK2
- substrate phage display: peptide selected as cleaved by hK2 (scissile bond ↓) [1]: MTR↓SN
- substrate phage display: peptide selected as cleaved by hK2 (scissile bond ↓) [2]: ER↓VSP
- substrate phage display: peptide selected as cleaved by hK2 (scissile bond ↓) [3]: RR↓SID
- substrate phage display: peptide selected as cleaved by hK2 (scissile bond ↓) [4]: RGR↓SE
- substrate phage display: peptide selected as cleaved by hK2 (scissile bond ↓) [5]: LR↓SRA
- substrate phage display: peptide selected as cleaved by hK2 (scissile bond ↓) [6]: KLR↓TT
